Residue numbers refer to the chain shown, from its start.
B1: 4285-PBL-TCR6 (TCR)
TCR alpha: QQVMQIPQYQHVQEGEDFTTYCNSSTTLSNIQWYKQRPGGHPVFLIQLVKSGEVKKQKRLTFQFGEAKKNSSLHITATQTTDVGTYFCAGPGGAGSYQLTFGKGTKLSVIPNIQNPEPAVYQLKDPRSQDSTLCLFTDFDSQINVPKTMESGTFITDKCVLDMKAMDSKSNGAIAWSNQTSFTCQDIFKETNATYPSSDVPCDATLTEKSFETDMNLNFQNLLVIVLRILLLKVAGFNLLMTLRLWSS
TCR beta: QVTQNPRYLITVTGKKLTVTCSQNMNHEYMSWYRQDPGLGLRQIYYSMNVEVTDKGDVPEGYKVSRKEKRNFPLILESPSPNQTSLYFCASSPFVVIGQINEQYFGPGTRLTVTEDLRNVTPPKVSLFEPSKAEIANKQKATLVCLARGFFPDHVELSWWVNGKEVHSGVCTDPQAYKESNYSYCLSSRLRVSATFWHNPRNHFRCQVQFHGLSEEDKWPEGSPKPVTQNISAEAWGRADCGITSASYQQGVLSATILYEILLGKATLYAVLVSTLVVMAMVKRKNS
B2: 4285-PBL-TCR1 (TCR)
TCR alpha: KTTQPNSMESNEEEPVHLPCNHSTISGTDYIHWYRQLPSQGPEYVIHGLTSNVNNRMASLAIAEDRKSSTLILHRATLRDAAVYYCILRDNNARLMFGDGTQLVVKPNIQNPEPAVYQLKDPRSQDSTLCLFTDFDSQINVPKTMESGTFITDKCVLDMKAMDSKSNGAIAWSNQTSFTCQDIFKETNATYPSSDVPCDATLTEKSFETDMNLNFQNLLVIVLRILLLKVAGFNLLMTLRLWSS
TCR beta: QVTQNPRYLITVTGKKLTVTCSQNMNHEYMSWYRQDPGLGLRQIYYSMNVEVTDKGDVPEGYKVSRKEKRNFPLILESPSPNQTSLYFCASGLVGFNQPQHFGDGTRLSILEDLRNVTPPKVSLFEPSKAEIANKQKATLVCLARGFFPDHVELSWWVNGKEVHSGVCTDPQAYKESNYSYCLSSRLRVSATFWHNPRNHFRCQVQFHGLSEEDKWPEGSPKPVTQNISAEAWGRADCGITSASYQQGVLSATILYEILLGKATLYAVLVSTLVVMAMVKRKNS
B3: 4285-PBL-TCR7 (TCR)
TCR alpha: ELKVEQNPLFLSMQEGKNYTIYCNYSTTSDRLYWYRQDPGKSLESLFVLLSNGAVKQEGRLMASLDTKARLSTLHITAAVHDLSATYFCAVAHMDSNYQLIWGAGTKLIIKPNIQNPEPAVYQLKDPRSQDSTLCLFTDFDSQINVPKTMESGTFITDKCVLDMKAMDSKSNGAIAWSNQTSFTCQDIFKETNATYPSSDVPCDATLTEKSFETDMNLNFQNLLVIVLRILLLKVAGFNLLMTLRLWSS
TCR beta: GVTQTPKFRVLKTGQSMTLLCAQDMNHEYMYWYRQDPGMGLRLIHYSVGEGTTAKGEVPDGYNVSRLKKQNFLLGLESAAPSQTSVYFCASSYAGLAAPREQFFGPGTRLTVLEDLRNVTPPKVSLFEPSKAEIANKQKATLVCLARGFFPDHVELSWWVNGKEVHSGVCTDPQAYKESNYSYCLSSRLRVSATFWHNPRNHFRCQVQFHGLSEEDKWPEGSPKPVTQNISAEAWGRADCGITSASYQQGVLSATILYEILLGKATLYAVLVSTLVVMAMVKRKNS
B4: 4285-PBL-TCR2 (TCR)
TCR alpha: KTTQPPSMDCAEGRAANLPCNHSTISGNEYVYWYRQIHSQGPQYIIHGLKNNETNEMASLIITEDRKSSTLILPHATLRDTAVYYCIVRARANAGGTSYGKLTFGQGTILTVHPNIQNPEPAVYQLKDPRSQDSTLCLFTDFDSQINVPKTMESGTFITDKCVLDMKAMDSKSNGAIAWSNQTSFTCQDIFKETNATYPSSDVPCDATLTEKSFETDMNLNFQNLLVIVLRILLLKVAGFNLLMTLRLWSS
TCR beta: GITQSPKYLFRKEGQNVTLSCEQNLNHDAMYWYRQDPGQGLRLIYYSQIVNDFQKGDIAEGYSVSREKKESFPLTVTSAQKNPTAFYLCASLQFNEQFFGPGTRLTVLEDLRNVTPPKVSLFEPSKAEIANKQKATLVCLARGFFPDHVELSWWVNGKEVHSGVCTDPQAYKESNYSYCLSSRLRVSATFWHNPRNHFRCQVQFHGLSEEDKWPEGSPKPVTQNISAEAWGRADCGITSASYQQGVLSATILYEILLGKATLYAVLVSTLVVMAMVKRKNS
B5: 4285-PBL-TCR9 (TCR)
TCR alpha: B4 TCR alpha
TCR beta: B4 TCR beta with S91T, L92R, Q93T, F94G, Q97A, P101Q, L108V
B6: 4285-PBL-TCR5 (TCR)
TCR alpha: B4 TCR alpha with A90G, R91S, A92P, N93G
TCR beta: B4 TCR beta with L92S, Q93I, F94R, N95T, Q97A, P101Q, L108V
B7: 4285-PBL-TCR3 (TCR)
TCR alpha: KDQVFQPSTVASSEGAVVEIFCNHSVSNAYNFFWYLHFPGCAPRLLVKGSKPSQQGRYNMTYERFSSSLLILQVREADAAVYYCAVEDRRRTALIFGKGTTLSVSSNIQNPEPAVYQLKDPRSQDSTLCLFTDFDSQINVPKTMESGTFITDKCVLDMKAMDSKSNGAIAWSNQTSFTCQDIFKETNATYPSSDVPCDATLTEKSFETDMNLNFQNLLVIVLRILLLKVAGFNLLMTLRLWSS
TCR beta: EPEVTQTPSHQVTQMGQEVILRCVPISNHLYFYWYRQILGQKVEFLVSFYNNEISEKSEIFDDQFSVERPDGSNFTLKIRSTKLEDSAMYFCASSEYQSQSNEQFFGPGTRLTVLEDLRNVTPPKVSLFEPSKAEIANKQKATLVCLARGFFPDHVELSWWVNGKEVHSGVCTDPQAYKESNYSYCLSSRLRVSATFWHNPRNHFRCQVQFHGLSEEDKWPEGSPKPVTQNISAEAWGRADCGITSASYQQGVLSATILYEILLGKATLYAVLVSTLVVMAMVKRKNS

Each binder was assayed against p53^R175H LP … (SEQ ID NO: 111) in the context of HLA-DRB1*13:01 (human) (assay: cell-based or functional assay).

Functional avidity: interferon-gamma secretion (ELISA), lowest peptide concentration recognized, 10 ng/mL:
B1, B2, B3, B4, B5, B6, B7
